From the supplement of paper PMC10567573

B1: KCNAB2 (parent)
chain: SSIIHEIDSILGNKPYSKKDYRS

Variants of: B1
Test: protein stability index of a GFP-peptide fusion (GPS, HEK-293T) (PSI 1-6); higher = more stable
Conditions: c terminus: native
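Further: lentivirally expressed fusions sorted by FACS into six bins by GFP to DsRed ratio, PSI derived from sequencing read proportions per bin multiplied by bin number.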

Protein stability index: each site, then its substitutions
R22: I 3.67; D 4.42; L 4.01; T 4.28; G 3.98; H 4.39; A 4.01; K 4.37; N 4.55; M 3.29; S 4.01; Q 4.29; C 3.26; Y 3.24; V 3.12; P 4.29; F 3.18; W 2.57
D20: P 4.21; S 2.78; C 2.01; H 2.51; E 2.89; M 2.96; Y 2.07; F 2.37; T 3.55; V 2.03; N 3.2; L 2.63; Q 2.04; W 1.92; K 2.47; A 2.14; G 3.07; I 2.41
K18: T 2.56; Y 2.24; W 3.39; M 1.27; F 2.32; R 2.94; G 2.61; H 2.48; N 3.1; E 3.16; I 2.11; P 2.03; D 2.7; Q 2.76; C 2.08; L 2.12; S 2.69; V 2.59; A 2.33
K19: C 3.2; E 4.45; F 2.66; I 3.3; D 4.08; G 3.84; A 3.55; R 2.89; H 3.9; T 4.16; N 4.06; V 3.82; M 3.75; Y 2.45; Q 3.87; P 4.09; W 2.8; L 3.58; S 3.92
Y21: T 2.35; D 4.07; L 2.37; K 3.66; N 3.64; E 3.37; V 3.27; H 3.15; F 2.52; C 3.13; S 1.08; M 2.17; W 3.28; R 1.77; P 5.12; Q 2.2; I 2.47; A 3.77; G 3.37
Y16: V 3.26; W 2.19
S23: M 3.96; A 3.37; Y 3.02; L 3.9; H 4.09; G 2.56; R 2.18; W 2.72; C 3.67; K 4.33; N 4.49; F 4.46; V 3.68; T 4.17; I 3.74; P 3.8; E 4.19; D 4.12; Q 3.6
S17: K 3.43; G 3.15; H 2.95; V 3.45; Q 3.76; A 3.74; Y 2.8; C 3.79; P 3.31; M 3.2; T 2.7; N 2.99; F 3.2; L 2.93; R 3.23; W 2.29; E 3.77; D 3.22; I 3.54
